From the supplement of paper PMC7125110
± gives the standard error. For some assays here: This sample holds only a part of the variants without activity.

B1: glmS ribozyme (parent)
chain: AUAAAAGCGCCAGAACUACAGAAAUGUAGUUGACGAGGAGGAGGUUUAUCGAAUUUUCGGCGGAUGCCUCCAAA

Assays:
Settings in all cases: with glucosamine-6-phosphate
glucosamine-6-phosphate [1] = variants of: B1; assay: kcat; higher = faster cleavage; RNA array
Procedure, shortened: (§1)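 In situ transcription by E. coli RNA polymerase produced barcoded ribozyme variants on sequenced MiSeq chips, and a hybridised Cy3 probe tracked them at 37 °C. Glucosamine-6-phosphate was flowed in at 40 μM to 10 mM in HEPES/KCl/Mg(OAc)2 buffer. kcat and KM were taken from weighted Michaelis–Menten fits of kobs values from exponential decay fits.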

glucosamine-6-phosphate [2] = variants of: B1; assay: KM; higher = weaker cofactor use; RNA array
Procedure, shortened: as §1

glucosamine-6-phosphate [3] = variants of: B1; assay: self-cleavage kobs at 160 uM GlcN6P; higher = faster cleavage; RNA array
Procedure, shortened: as §1

glucosamine-6-phosphate [4] = variants of: B1; assay: self-cleavage kobs at 640 uM GlcN6P; higher = faster cleavage; RNA array
Procedure, shortened: as §1

glucosamine-6-phosphate [5] = variants of: B1; assay: self-cleavage kobs at 2500 uM GlcN6P; higher = faster cleavage; RNA array
Procedure, shortened: as §1

glucosamine-6-phosphate [6] = variants of: B1; assay: self-cleavage kobs at 10000 uM GlcN6P; higher = faster cleavage; RNA array
Procedure, shortened: as §1

glucosamine-6-phosphate [7] = variants of: B1; assay: self-cleavage kobs at 40 uM GlcN6P; higher = faster cleavage; RNA array
Procedure, shortened: as §1

U46G A53C
kcat (glucosamine-6-phosphate [1]): 0.00122 ± 6.4e-05 s⁻¹
KM (glucosamine-6-phosphate [2]): 2790 ± 250 µM
self-cleavage kobs at 160 uM GlcN6P (glucosamine-6-phosphate [3]): 5.96e-05 ± 1.8e-05 s⁻¹
self-cleavage kobs at 640 uM GlcN6P (glucosamine-6-phosphate [4]): 0.000231 ± 4.3e-05 s⁻¹
self-cleavage kobs at 2500 uM GlcN6P (glucosamine-6-phosphate [5]): 0.000609 ± 9.9e-05 s⁻¹
self-cleavage kobs at 10000 uM GlcN6P (glucosamine-6-phosphate [6]): 0.000938 ± 0.00012 s⁻¹

A53U
kcat (glucosamine-6-phosphate [1]): 0.048 ± 0.0058 s⁻¹
KM (glucosamine-6-phosphate [2]): 2500 ± 350 µM
self-cleavage kobs at 40 uM GlcN6P (glucosamine-6-phosphate [7]): 0.000782 ± 1.4e-05 s⁻¹
self-cleavage kobs at 160 uM GlcN6P (glucosamine-6-phosphate [3]): 0.00253 ± 0.00016 s⁻¹
self-cleavage kobs at 640 uM GlcN6P (glucosamine-6-phosphate [4]): 0.0093 ± 0.00029 s⁻¹
self-cleavage kobs at 2500 uM GlcN6P (glucosamine-6-phosphate [5]): 0.0221 ± 0.00097 s⁻¹
self-cleavage kobs at 10000 uM GlcN6P (glucosamine-6-phosphate [6]): 0.042 ± 0.0018 s⁻¹

G13A U31A
kcat (glucosamine-6-phosphate [1]): 0.00146 ± 4.2e-05 s⁻¹
KM (glucosamine-6-phosphate [2]): 9800 ± 410 µM
self-cleavage kobs at 640 uM GlcN6P (glucosamine-6-phosphate [4]): 9.06e-05 ± 1.9e-05 s⁻¹
self-cleavage kobs at 2500 uM GlcN6P (glucosamine-6-phosphate [5]): 0.000292 ± 6.9e-05 s⁻¹
self-cleavage kobs at 10000 uM GlcN6P (glucosamine-6-phosphate [6]): 0.00074 ± 0.0001 s⁻¹

A14U A64U G66C
kcat (glucosamine-6-phosphate [1]): 1.84e-05 ± 4.5e-06 s⁻¹

A39C A42U
kcat (glucosamine-6-phosphate [1]): 0.000187 ± 4e-05 s⁻¹
self-cleavage kobs at 2500 uM GlcN6P (glucosamine-6-phosphate [5]): 0.000135 ± 2.9e-05 s⁻¹
self-cleavage kobs at 10000 uM GlcN6P (glucosamine-6-phosphate [6]): 0.000143 ± 2.2e-05 s⁻¹

A52G C68A C70U
kcat (glucosamine-6-phosphate [1]): 1.69e-05 ± 3.4e-06 s⁻¹

U31A A33G C70A
kcat (glucosamine-6-phosphate [1]): 1.81e-05 ± 5.1e-06 s⁻¹

C16U G29A G66A
kcat (glucosamine-6-phosphate [1]): 0.00966 ± 0.0019 s⁻¹
KM (glucosamine-6-phosphate [2]): 597 ± 190 µM
self-cleavage kobs at 40 uM GlcN6P (glucosamine-6-phosphate [7]): 0.000592 ± 0.00015 s⁻¹
self-cleavage kobs at 640 uM GlcN6P (glucosamine-6-phosphate [4]): 0.00534 ± 0.001 s⁻¹
self-cleavage kobs at 2500 uM GlcN6P (glucosamine-6-phosphate [5]): 0.00654 ± 0.0021 s⁻¹
self-cleavage kobs at 10000 uM GlcN6P (glucosamine-6-phosphate [6]): 0.0139 ± 0.0063 s⁻¹

G59A C70A
kcat (glucosamine-6-phosphate [1]): 1.52e-05 ± 3.7e-06 s⁻¹

C50A U55A
kcat (glucosamine-6-phosphate [1]): 1.62e-05 ± 1.3e-06 s⁻¹
KM (glucosamine-6-phosphate [2]): 3470 ± 790 µM

G60C C68G
kcat (glucosamine-6-phosphate [1]): 1.2e-05 ± 1.5e-06 s⁻¹

A36U C67G
kcat (glucosamine-6-phosphate [1]): 1.75e-05 ± 5.9e-06 s⁻¹

A14U G37A
kcat (glucosamine-6-phosphate [1]): 0.000902 ± 0.00022 s⁻¹
KM (glucosamine-6-phosphate [2]): 3590 ± 1400 µM
self-cleavage kobs at 160 uM GlcN6P (glucosamine-6-phosphate [3]): 6.22e-05 ± 1.3e-05 s⁻¹
self-cleavage kobs at 640 uM GlcN6P (glucosamine-6-phosphate [4]): 0.00012 ± 1.5e-05 s⁻¹
self-cleavage kobs at 2500 uM GlcN6P (glucosamine-6-phosphate [5]): 0.00043 ± 5.9e-05 s⁻¹
self-cleavage kobs at 10000 uM GlcN6P (glucosamine-6-phosphate [6]): 0.000648 ± 7.7e-05 s⁻¹

C10G C58A
kcat (glucosamine-6-phosphate [1]): 1.01e-05 ± 1.8e-06 s⁻¹
self-cleavage kobs at 640 uM GlcN6P (glucosamine-6-phosphate [4]): < 1e-05 s⁻¹
self-cleavage kobs at 10000 uM GlcN6P (glucosamine-6-phosphate [6]): < 1e-05 s⁻¹

U57A C58A
kcat (glucosamine-6-phosphate [1]): 4.9e-05 ± 5.6e-06 s⁻¹
self-cleavage kobs at 2500 uM GlcN6P (glucosamine-6-phosphate [5]): 4.44e-05 ± 1.1e-05 s⁻¹
self-cleavage kobs at 10000 uM GlcN6P (glucosamine-6-phosphate [6]): 4.41e-05 ± 9.8e-06 s⁻¹

C16A U54A
kcat (glucosamine-6-phosphate [1]): 0.0017 ± 0.00051 s⁻¹
KM (glucosamine-6-phosphate [2]): 2150 ± 940 µM
self-cleavage kobs at 40 uM GlcN6P (glucosamine-6-phosphate [7]): 5.13e-05 ± 1.3e-05 s⁻¹
self-cleavage kobs at 160 uM GlcN6P (glucosamine-6-phosphate [3]): 0.000136 ± 2.6e-05 s⁻¹
self-cleavage kobs at 640 uM GlcN6P (glucosamine-6-phosphate [4]): 0.000351 ± 4.9e-05 s⁻¹
self-cleavage kobs at 2500 uM GlcN6P (glucosamine-6-phosphate [5]): 0.00076 ± 0.00015 s⁻¹
self-cleavage kobs at 10000 uM GlcN6P (glucosamine-6-phosphate [6]): 0.00169 ± 0.00028 s⁻¹

U56A C68A
kcat (glucosamine-6-phosphate [1]): 4.71e-05 ± 1.1e-05 s⁻¹
self-cleavage kobs at 160 uM GlcN6P (glucosamine-6-phosphate [3]): 5.43e-05 ± 1e-05 s⁻¹
self-cleavage kobs at 640 uM GlcN6P (glucosamine-6-phosphate [4]): 5.74e-05 ± 1e-05 s⁻¹
self-cleavage kobs at 2500 uM GlcN6P (glucosamine-6-phosphate [5]): 5.61e-05 ± 1e-05 s⁻¹

A53U U54G
kcat (glucosamine-6-phosphate [1]): 0.0452 ± 0.016 s⁻¹
KM (glucosamine-6-phosphate [2]): 3780 ± 1600 µM
self-cleavage kobs at 40 uM GlcN6P (glucosamine-6-phosphate [7]): 0.000521 ± 4.8e-05 s⁻¹
self-cleavage kobs at 640 uM GlcN6P (glucosamine-6-phosphate [4]): 0.00468 ± 0.001 s⁻¹
self-cleavage kobs at 2500 uM GlcN6P (glucosamine-6-phosphate [5]): 0.0161 ± 0.0061 s⁻¹
self-cleavage kobs at 10000 uM GlcN6P (glucosamine-6-phosphate [6]): 0.0354 ± 0.0056 s⁻¹

A53U U54A
kcat (glucosamine-6-phosphate [1]): 0.0314 ± 0.0026 s⁻¹
KM (glucosamine-6-phosphate [2]): 1760 ± 180 µM
self-cleavage kobs at 40 uM GlcN6P (glucosamine-6-phosphate [7]): 0.000727 ± 0.00011 s⁻¹
self-cleavage kobs at 160 uM GlcN6P (glucosamine-6-phosphate [3]): 0.00236 ± 0.00084 s⁻¹
self-cleavage kobs at 640 uM GlcN6P (glucosamine-6-phosphate [4]): 0.00817 ± 0.0019 s⁻¹
self-cleavage kobs at 2500 uM GlcN6P (glucosamine-6-phosphate [5]): 0.0161 ± 0.0071 s⁻¹
self-cleavage kobs at 10000 uM GlcN6P (glucosamine-6-phosphate [6]): 0.0279 ± 0.0062 s⁻¹
